Reference: article PMC10901556, “Conservation of Affinity Rather Than Sequence Underlies a Dynamic Evolution of the Motif-Mediated p53/MDM2 Interaction in Ray-Finned Fishes” (Molecular Biology and Evolution, 2024)
One block for each substance: values may come before it.

How the values were obtained:
[1] = target: MDM2 SWIB domain from Anguilla anguilla (European eel) (Anguilla anguilla (European eel)); test: fluorescence polarisation; displacement: complex of MDM2 (0.2-2 μM) and FITC-p53TAD_(human)^15–26 (15 nM) displaced by increasing unlabeled p53TAD peptide or p53TAD^full-length; KD calculated from IC50 (Nikolovska-Coleska et al. 2004); 20 mM sodium phosphate pH 7.4, 150 mM NaCl, 1 mM TCEP
[2] = target: MDM2 SWIB domain from Channa argus (Channa argus); test: as above
[3] = target: MDM2 SWIB domain from Clupea harengus (Atlantic herring) (Clupea harengus (Atlantic herring)); test: as above
[4] = target: MDM2 SWIB domain from Lepisosteus oculatus (spotted gar) (Lepisosteus oculatus (spotted gar)); test: as above
[5] = target: MDM2 SWIB domain from Maylandia zebra (Maylandia zebra); test: as above
[6] = target: MDM2 SWIB domain from Oncorhynchus kisutch (coho salmon) (Oncorhynchus kisutch (coho salmon)); test: as above
[7] = target: MDM2_(D.rerio) SWIB domain (Danio rerio (zebrafish)); test: as above
MDM2 SWIB (Homo sapiens) = MDM2 SWIB (Homo sapiens) (UniProt Q00987); settings: cited from earlier work
[8] = target: MDM2_(D.rerio) SWIB domain (Danio rerio (zebrafish)); test: ITC; MicroCal iTC200, 25 °C; D. rerio MDM2 11 μM in the cell, p53TAD 118 or 116 μM in the syringe; 20 mM sodium phosphate pH 7.4, 150 mM NaCl, 1 mM TCEP
[9] = target: MDM2_(D.rerio) SWIB domain; test: fluorescence polarization competition assay
[10] = target: MDM2 SWIB domain from Takifugu rubripes (Japanese puffer) (Takifugu rubripes (Japanese puffer)); test: fluorescence polarisation; displacement: complex of MDM2 (0.2-2 μM) and FITC-p53TAD_(human)^15–26 (15 nM) displaced by increasing unlabeled p53TAD peptide or p53TAD^full-length; KD calculated from IC50 (Nikolovska-Coleska et al. 2004); 20 mM sodium phosphate pH 7.4, 150 mM NaCl, 1 mM TCEP

- Kd [1]: 230 nM
Substance: Anguilla anguilla (European eel) p53TADP1 p53TAD^full-length (domain or fragment)

- Kd [1]: 60 nM
Substance: Anguilla anguilla p53TADP2 p53TAD^full-length (domain or fragment)

- Kd [2]: 100 nM
Substance: Channa argus p53TADP1 p53TAD^full-length (domain or fragment)

- Kd [3]: 190 nM
Substance: Clupea harengus (Atlantic herring) p53TADP1 p53TAD^full-length (domain or fragment)

- Kd [3]: 600 nM
Substance: Clupea harengus p53TADP2 p53TAD^15–27 (peptide)

- Kd [3]: 40 nM
Substance: Clupea harengus p53TADP2 p53TAD^full-length (domain or fragment)

- Kd [4]: 85 nM
Substance: Lepisosteus oculatus (spotted gar) p53TAD^full-length (domain or fragment)

- Kd [5]: 190 nM
Substance: Maylandia zebra p53TADP1 p53TAD^full-length (domain or fragment)

- Kd [6]: 48 nM
Substance: Oncorhynchus kisutch (coho salmon) p53TADP1a p53TAD^full-length (domain or fragment)

- Kd [6]: 60 nM
Substance: Oncorhynchus kisutch p53TADP1b p53TAD^full-length (domain or fragment)

- Kd [6]: 70 nM
Substance: Oncorhynchus kisutch p53TADP2 p53TAD^full-length (domain or fragment)

- Kd [7]: 580 nM
Substance: alternative p53TAD^17–32_(D.rerio) (P79734) (peptide)

Substance: p53 TAD (from UniProt P04637)
- Kd (MDM2 SWIB (Homo sapiens)): 100 nM

- Kd [8]: 300 nM
- Kd [7]: 180 nM
Substance: p53TAD^17–32_(D.rerio) (peptide)

- Kd [9]: 460 nM
Substance: p53TAD^17–32_(D.rerio) I28A

- Kd [8]: 100 nM
- Kd [7]: 49 nM
Substance: p53TAD_(D.rerio)^full-length (domain or fragment)

- Kd [6]: 780 nM
- Kd [4]: 370 nM
- Kd [5]: 1700 nM
- Kd [3]: 1800 nM
- Kd [1]: 900 nM
- Kd [2]: 2100 nM
- Kd [10]: 1100 nM
Substance: p53TAD_(H.sapiens)^15–27 (peptide)
